Literature values as cited in publication PMC6858787.

Biological target: CheY (Thermotoga maritima) (UniProt Q56312)
UniProt Q56312, sequence (Q56312 whole entry): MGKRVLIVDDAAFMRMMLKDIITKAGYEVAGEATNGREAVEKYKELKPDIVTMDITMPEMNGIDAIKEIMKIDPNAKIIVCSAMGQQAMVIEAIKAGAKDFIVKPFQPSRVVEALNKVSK

In the case of “CheA CheY binding domain (from UniProt Q56310)”, the Kd is given as 200 nM.
